Here are results for 16 molecules from patent publication US20190338026A1 (University of Texas, published 2019).

Assay [1] addresses T1, human LAIR1 extracellular domain (ECD) protein with 6 HIS tag at the C-terminus (human, UniProt Q6GTX8 22-165).
T1 construct: Produced recombinantly in HEK293 cells; the whole entry is named here; also called LAIR1 ECD; LAIR1-ECD
T1 chain: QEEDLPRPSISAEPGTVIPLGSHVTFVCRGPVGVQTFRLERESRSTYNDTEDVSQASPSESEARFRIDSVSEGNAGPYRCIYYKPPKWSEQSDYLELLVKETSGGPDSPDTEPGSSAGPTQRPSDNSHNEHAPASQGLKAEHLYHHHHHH
Description: ELISA, LAIR1 ECD coated, mAb titrated, anti-rabbit HRP. The protocol: (§1) The inventors then used a concentration titration (0-10 μg/ml) by ELISA to determine the LAIR1 monoclonal antibody (mAbs) binding to human LAIR1 ECD. […] For FIGS. 2-39, X axis indicates the antibody concentrations and Y-axis is binding signals, measured as OD (450 nm). To perform the ELISA assay, LAIR1 ECD recombinant protein was coated on high absorption 96-well plates. Serial diluted (3-fold) LAIR1 mAb was added to the coated/blocked plates and detected using goat anti-rabbit F(ab′)2 conjugated HRP as secondary antibody. All assays were repeated 3 times and the titration curves were fitted using 4-parameter fitting curve using the GraphPad software for EC₅₀ estimation.
(§2) Serial dilutions of the LAIR1 monoclonal antibodies (IgGs or scFvs fragments), starting from […] and 3-fold titration down for 12 steps, were added to the 96-well plate for binding by incubating 45 minutes at 37° C. with a cover on the assay plate. Then the plates were washed with PBS containing Tween 20 (0.05% concentration) for 3 times and PBS one time. […] Detection was conducted by adding HRP substrate, TMB (ThermoFisher) for 10 minutes, and stopped by adding 50 μl/well of 2N H2504. The plates were read for absorbance at 450 nm using a plate reader (SpectraMax M4, Molecular Devices). Data were collected and graphed using a 4-parameter fitting curve with GrapPad Prism 7 software for EC₅₀ calculation.
Background: An ELISA detects its analyte on a solid surface through an enzyme-linked reagent.

The target of assay [2] is T1, human LAIR1 extracellular domain (ECD) …. The assay is described as follows: ELISA, LAIR1 ECD coated. As for the experimental part: as §1, §2
The target in assay [3] is T2, LAIR1 on LAIR1 reporter cells (human, UniProt Q6GTX8 22-165, limits assumed).
T2 chain: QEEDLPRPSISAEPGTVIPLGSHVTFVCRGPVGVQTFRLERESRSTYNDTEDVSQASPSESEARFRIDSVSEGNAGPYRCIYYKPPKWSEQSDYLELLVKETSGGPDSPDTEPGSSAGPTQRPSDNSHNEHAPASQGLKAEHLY
The assay is described as follows: cell-based or functional assay.

B1: LA-56 (antibody, V domains shown)
VH: SSSVEESGGRLVTPGTPLTLTCTVSGFSLSAYWVGWVRQAPGKGLEYIGFVDVDIYYASWARGRFTISKTSSTTVDLILTSPTMEDTATYFCVRMSYNAMDLWGPGTLVTISS
VL: ELDLTQTASSVSAAVGDTVTINCQSSESVYKDNFLSWYQQKPGQPPKLLIYRASTLASGVPSRFKGSGSGSQFTLTISDVVCDDAATYYCSGYRNSHDGLPFGGGTEVEIK
notes: Rabbit monoclonal IgG; also called mAb LA-56
The term EC50 denotes the midpoint of the concentration-response curve. A higher EC50 goes with a need for much substance. For orientation: EC50 (read off the curve) means the concentration at which the effect is half-maximal. Low readings indicate a more potent agent, high ones a less potent agent. With B1, in assay [1], the 50% effective concentration (EC50) was found to be 0.05 nM. Also, in assay [2], the “EC50 (read off the curve)” value was ~7 ng/mL.

B2: LA-258-1 (antibody, V domains shown)
VH: QSVKESGGDLVKPEGSLTLTCKASGFSFSNSYYMCWVRQAPGKGLEWIACIYTGSTSGTYYASWVNGRFTISKTPSTTVTLQMTSLTVADTATYFCSRKLTNFNGAYLDLWGPGTLVTISS
VL: ELVLTQTPASVEAAVGGTVTINCQASQSISNLLAWYQQKPGQRPKLLIYRASTLASGVSSRFKGSGSGTEYTLTISGVQCDDAATYYCQQGYTSNNVDNAFGGGTEVEIK
notes: Rabbit monoclonal IgG
B2 registered an EC50 in assay [1] of 4.21 nM.

B3: LA-171 (antibody, V domains shown)
VH: EQSVEESGGRLVTPGGSLTLTCTVSGFSLSSYNMGWVRQAPGKGLEYIGWISLGGNTYYASWVNGRFTISKTSTTVELKISSPTTEDTATYFCARGAGSLYYGDYYFTLWGPGTLVTISS
VL: ELVLTQTPSSVSAAVGGTVTIKCQASQSIYSNLAWYQQKPGQPPKLLIYKASNLASGVPSRFKGSGSGTEYTLTISDLECADAATYYCQNYYGINDYGAAFGGGTEVVVK
notes: Rabbit monoclonal IgG
B3 returned an EC50 in assay [1] of 0.09 nM. Also, in assay [2], the “EC50 (read off the curve)” value was ~10 ng/mL.

B4: LA-259-1 (antibody, V domains shown)
VH: QSVKESGGRLVTPGTPLTLTCTASGFSLYKYNIQWVRQAPGKGLEYIGASTYAGYTYYASWAKGRVTISRTSTTVDLKMTSPTTEDTATYFCARHIDGDYSGYALWGPGTLVTISS
VL: ELVLTQTPASVSAAVGGTVTIKCQASQSIGTWFAWYQQKPGQSPKLLIYGPSKLASGVPPRFKGSGSGTEFTLTISDLECADAATYYCQSTYFGVDYLGGTFGGGTEVVVK
notes: Rabbit monoclonal IgG
For B4, in assay [1], the EC50 worked out at 0.23 nM. Also, the 50% effective concentration (EC50 (read off the curve)) in assay [2] is ~30 ng/mL.

B5: LA-142-2 (antibody, V domains shown)
VH: AAVKESGGRLVTPGTPLTLTCTASGFSLYKYNIQWVRQAPGKGLEYIGASTYAGYTYYASWAKGRVTISRTSTTVDLKMTSPTTEDTATYFCARHIDGDYSGYALWGPGTLVTVSS
VL: ELVLTQTPASVSAAVGGTVTIKCQASQSIGTWFAWYQQKPGQSPKLLIYGASNLASGVSSRFKGIRSGTEYTLTISDLECADAATYYCQCSDVGNTYGAAFGGGTEVEIN
notes: Rabbit monoclonal IgG
In the case of B5, the EC50 in assay [1] stood at 0.28 nM. Besides, in assay [2], the “EC50 (read off the curve)” value was ~40 ng/mL.

B6: LA-142-1 (antibody, V domains shown)
VH: AAVKESGGRLVTPGTPLTLTCTASGFSLYKYNIQWVRQAPGKGLEYIGASTYAGYTYYASWAKGRVTISRTSTTVDLKMTSPTTEDTATYFCARHIDGDYSGYALWGPGTLVTVSS
VL: ELVLTQTPASVSAAVGGTVTIKCQASQSIGTWFAWYQQKPGQSPKLLIYGPSKLASGVPPRFKGSGSGTEFTLTISDLECADAATYYCQSTYFGVDYLGGTFGGGTEVEIK
notes: Rabbit monoclonal IgG
In assay [1], B6 yielded an EC50 of 0.25 nM. For the same molecule, the “EC50 (read off the curve)” value in assay [2] was ~40 ng/mL.

B7: LA-61 (antibody, V domains shown)
VH: EQLMEESGGRLVTPGTPLTLTCTASGFDVNAYHMGWVRQAPGKGLEWIGYIYSGGTIFYANWAKGRFTLSRTSTTVDLKITSPTTEDTATYFCARGGYDNYNILYDLWGPGTLVTISS
VL: ELDMTQTPASVSEPVGGTVTIKCQASQSISVYLAWYQQKPGQPPKLLIYDASTLTSGVPSRFKGSGSGTEFTLTISDLECADAAAYYCQSYDGTPTAAFGGGTEVVVK
notes: Rabbit monoclonal IgG; also called mAb LA-61
B7 showed an EC50 in assay [1] of 0.05 nM. Besides, the “EC50 (read off the curve)” value in assay [2] was ~20 ng/mL.

B8: LA-60 (antibody, V domains shown)
VH: EQSLESGGGLVQPEGSLTLTCTASGFSFSNSYYMCWVRQAPGKGLEWIGCIYTGSSSGTYYASWAEGRFTISKTPSTTVTLQMTSLTAADTATYFCSRKLTNFNGAYLDLWGPGTLVTVSS
VL: ELVLTQTPASVEAAVGGTVTIKCQASQSIYSYLAWYQQKPGQPPKVLIYKASTLASGVPSRFKGSGSGTEFTLTISDLECADAATYYCQNNNGGSDNTFGGGTEVVVK
notes: Rabbit monoclonal IgG; also called mAb LA-60
For B8, a half-maximal effect in assay [1] (EC50) was put at 0.1 nM. Moreover, the “GFP+% of LAIR1 reporter cells, collagen I coated, soluble Ab” value in assay [3] was found to be 6.5%. In addition, the “EC50 (read off the curve)” value in assay [2] is ~10 ng/mL.

B9: LA-6 (antibody, V domains shown)
VH: EQSVEESGGDLVKPEGSLTLTCTASGFSFSSGYYMCWVRQAPGKGLEWIGCIHSSSGNIYYASWAKGRFTISKTSSTTVDLQLTSLTAADTATYFCARDSEVYGWNPNDLWGPGTLVTVSS
VL: ELDMTQTPASVSEPVGGTVTIKCQASQSISSYLAWYQQKPGQRPKLLIYGASNLASGVSSRFKGSRSGTQFTLTITDLECDDAATYYCQCSYYGNSYVGGAFGGGTEVVVK
notes: Rabbit monoclonal IgG; also called mAb LA-6
Turning to B9, the midpoint of the response in assay [1], the EC50, lay at 0.07 nM. Moreover, in assay [2], the “EC50 (read off the curve)” value is ~10 ng/mL.

B10: LA-111 (antibody, V domains shown)
VH: EQSVEESGGGLVAPGGSLTLTCTVSGFSLSNYHMGWVRQAPGKGLEWIGYIYTHGTTFYASWAKGRFTISKTSTTVDLKMTRLTTGDTATYFCARGGYADYNILYNLWGPGTLVTISS
VL: ELVLTQTPASVEAAVGGTVTINCQASQSISSYLAWYQQKPGQPPKLLIYDASDLASGVPSRFKGSRSGTEFTFTISDLECADAATYYCQTYDSSTTAAFGGGTEVEIK
notes: Rabbit monoclonal IgG
For the molecule B10, the midpoint of the response in assay [1], the EC50, lay at 0.09 nM. The “EC50 (read off the curve)” value in assay [2] is ~10 ng/mL.

B11: LA-145 (antibody, V domains shown)
VH: SSSVEESGGRLVTPGTPLTLTCTVSGFSLSSYVMGWVRQAPGKGLEWIGTISIRSNTYYASWAKGRFTISKTSTTVDLKITSPITEDTATYFCARGAGNVYYSDYYFSLWGPGTLVTISS
VL: ELVMTQPPASVSAAVGGTVTINCQASQNIYSNLAWYQQRPGQPPKLLIYKASTLASGVPSRFKGSGSGTDYTLTITDLECADAATYYCQTYYNMMDDGAAFGGGTEVEIK
notes: Rabbit monoclonal IgG
B11: the EC50 in assay [1] came to 0.08 nM. For the same molecule, the half-maximal effective concentration (EC50 (read off the curve)) in assay [2] was ~10 ng/mL.

B12: LA-245 (antibody, V domains shown)
VH: QSLQESRGRLVTPGTPLTLTCTASGFSLSSYHMGWVRQAPGKGLEWIGYIHTNRNTWYANWAKGRFTISKTSSTTVNLRMTSPTTEDTATYFCARGSYGDYNFLFDVWGPGTLVTVSS
VL: ELVMTQTPASVSEPVGGTVTINCQASEDISIYLAWYQQKPGQPPKLLIYDASTLESGVPSRFSGSGSRTQFTLTISDLECADAATYYCQQYSTTDTNNLFGGGTEVEIK
notes: Rabbit monoclonal IgG
In assay [1], B12 registered an EC50 of 0.09 nM. Besides, the “EC50 (read off the curve)” value in assay [2] is ~10 ng/mL.

B13: LA-199 (antibody, V domains shown)
VH: EQSVEESGGRLVTPGTPLTLTCTASGFSLSSYAMIWVRQAPGEGLEWIGDIYAGGGATYYASWAKGRFTISKTSTTVDLKITSPTTEDTATYFCARAYGSGYDLWGPGTLVTVSS
VL: ELDLTQTPASVEVAVGGTVTIKCQASQSISSYLSWYQQKPGQPPKLLIYYASTMASGVPSRFSGSGSGTQFTLTISDLECADAATYYCQQGDSRSNVDNIFGGGTEVVVK
notes: Rabbit monoclonal IgG
In the case of B13, the EC50 in assay [1] was determined as 0.16 nM. Further, the “EC50 (read off the curve)” value in assay [2] is ~20 ng/mL.

B14: LA-29 (antibody, V domains shown)
VH: SSSVEESGGGLVQPEGSLTLTCTASGFSFSSRYYMCWVRQAPGKGLEWIACIYNGDGSRYYASWAKGRFTISKTSSTTVTLQMTSLTAADTATYFCVRDRHTAFVDYGDDNLWGPGTLVTVSS
VL: ELDLTQTPASVSEPVGGTVTIKCQASQSIYSNLAWYQQKPGQPPKLLIYRASTLASGVPSRFKGSGAGTEFTLTISDLECADAATYYCQCTYDGISYVPSSFGGGTEVVVK
notes: Rabbit monoclonal IgG; also called mAb LA-29
On to B14, for which, in assay [1], the EC50 was determined as 0.02 nM. The “EC50 (read off the curve)” value in assay [2] was ~10 ng/mL.

B15: LA-89 (antibody, V domains shown)
VH: QSVKESGGRLVTPGTPLTLTCTVSGFSLSSNAISWVRQAPGKGLEWIGYIYGDGRTFYASWAKGRFTISKTSTTVDLKMTSLTSEDTATYFCIKSLHLWGPGTLVTISS
VL: ELDMTQTASPVSAAVGGTVTINCQSSQSVYNKNQLFWYQQKPGQPPKLLIYDASTLASGVPSRYKGSGSGTQFTLTISGVQCDDAATYYCLGEYTGNIYTFGEGTEVVVK
notes: Rabbit monoclonal IgG; also called mAb LA-89
In assay [1], B15 returned an EC50 of 0.08 nM. Further, in assay [2], the “EC50 (read off the curve)” value is ~10 ng/mL.

B16: LA-141 (antibody, V domains shown)
VH: QSLEESGGRLVKPDESLTLTCTVSGFSLSSNAMSWVRQAPGKGLEWIGYIYGDGRTFYANWAKGRITISRTSTTVDLKMTSLRTEDTATYFCVKSLILWGPGTLVTISS
VL: ELDMTQTPSPVSAAVGGTVTINCQSSHSVYNANQLYWYQQKPGQPPKLLIYDASTLASGVPSRFKGSGSGTQFTLTISGVQCDDAATYYCLGEYSGNIYVFGEGTEVEIN
notes: Rabbit monoclonal IgG
In the case of B16, the EC50 in assay [1] amounted to 0.05 nM. The “EC50 (read off the curve)” value in assay [2] is ~10 ng/mL.
